According to paper PMC9975281, “Enolpyruvate transferase MurAA^A149E, identified during adaptation of Enterococcus faecium to daptomycin, increases stability of MurAA–MurG interaction” (The Journal of Biological Chemistry, 2023):

Assays:
MurAA^A149E = molecular target: T1, MurAA^A149E (Enterococcus faecium, UniProt A0A133CTP6, A149E); assay: microscale thermophoresis in the presence of UDP-GlcNAc; format: binding
T1 construct: gene murA; full-length

MurAA [1] = molecular target: T2, MurAA (Enterococcus faecium, UniProt A0A133CTP6); assay: ([…] Å); MST in the presence of UDP-GlcNAc; format: binding
T2 construct: gene murA; full-length

MurAA [2] = molecular target: T2, MurAA; assay: X-ray crystal structure ([…] Å), co-purified ligand, weak/partial density; format: binding
[3] = molecular target: Enterococcus faecium MurG (Enterococcus faecium) (UniProt Q3Y2H8); assay: MST; 50 nM His-MurG labelled with RED-tris-NTA, serial dilution of MurAA^WT (402 uM to 12.3 nM) or MurAA^A149E (69.9 uM to 2.13 nM); 20 mM Hepes pH 7.5, 150 mM NaCl, 0.05% Tween; Monolith NT.115; triplicate
C=C(OP(=O)(O)O)C(=O)O [4] = assay: purified protein; conditions: covalently bound within the active site at Cys119
C=C(OP(=O)(O)O)C(=O)O [5] = assay: steady-state kinetics (Km), EnzChek phosphate assay; format: biochemical, Enterococcus faecium

## C[C@@H]1O[C@@H]1P(=O)(O)O [FOS, fosfomycin]
MurAA^A149E
  Kd: 470 ± 60 nM
MurAA [1]
  Kd: 1870 ± 670 nM

## CC(=O)N[C@H]1[C@@H](OP(=O)(O)OP(=O)(O)OC[C@H]2O[C@@H](n3ccc(=O)[nH]c3=O)[C@H](O)[C@@H]2O)O[C@H](CO)[C@@H](O)[C@@H]1O[C@H](C)C(=O)O [UDP-MurNAc]
MurAA [2]
  X-ray crystal structure (2.65 Å), co-purified ligand, weak/partial density: Cys119-PEP adduct and UDP–MurNAc at the interface of two domains in E. faecium MurAA

## Enterococcus faecium MurAA, wildtype (UDP-N-acetylglucosamine enolpyruvate transferase) (enzyme)
[3]
  Kd: 27.7 µM

## Enterococcus faecium MurAA^A149E (enzyme)
[3]
  Kd: 1.72 µM

## MurAA (Enterococcus faecium)
C=C(OP(=O)(O)O)C(=O)O [4]
  Km: 6.35 ± 0.88 µM
  kcat: 1.81 ± 0.06 s⁻¹

## MurAA^A149E (Enterococcus faecium; A149E)
C=C(OP(=O)(O)O)C(=O)O [5]
  Km: 7.26 ± 1.05 µM
  kcat: 1.04 ± 0.04 s⁻¹
